Reference: patent US20140087995A1 (published 2014)
Numbered stars: 1 amine (or outer) side, 2 acyl side, 3 side chain; on linkers, the order of the positions; unused ones are H or OH. Bridge positions count the residues as written; N and C are the ends. Side chains are listed from the residue outwards. Ends that are not written are not given here. * marks the point of attachment. C20 diacid = O=C(O)CCCCCCCCCCCCCCCCCCC(=O)*; γGlu = O=C(O)[C@H](CCC(=O)[*:2])N[*:1]; AEEA = NCCOCCOCC(=O)O

T1: rat calcitonin receptor (rat, UniProt P32214 25-516)
T1 construct: whole, on cells; Used as membranes prepared from the transfected cells; also called rCTR; rCT
T1 sequence (looked up): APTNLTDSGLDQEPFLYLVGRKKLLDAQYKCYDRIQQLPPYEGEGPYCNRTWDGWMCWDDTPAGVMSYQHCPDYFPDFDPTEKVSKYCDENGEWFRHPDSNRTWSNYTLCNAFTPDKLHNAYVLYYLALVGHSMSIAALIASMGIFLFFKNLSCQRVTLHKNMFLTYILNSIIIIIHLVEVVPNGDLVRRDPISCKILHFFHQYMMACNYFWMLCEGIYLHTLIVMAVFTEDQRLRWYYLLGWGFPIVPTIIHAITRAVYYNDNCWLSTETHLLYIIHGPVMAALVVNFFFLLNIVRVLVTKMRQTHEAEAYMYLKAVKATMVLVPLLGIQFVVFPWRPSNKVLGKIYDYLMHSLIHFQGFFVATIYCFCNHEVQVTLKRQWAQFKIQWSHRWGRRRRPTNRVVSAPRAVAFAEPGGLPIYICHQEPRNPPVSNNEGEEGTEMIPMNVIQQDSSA

T2: human calcitonin receptor (human, UniProt P30988 25-474)
T2 construct: whole, on cells; Used as membranes prepared from the transfected cells; also called hCTR; hCT
T2 sequence (looked up): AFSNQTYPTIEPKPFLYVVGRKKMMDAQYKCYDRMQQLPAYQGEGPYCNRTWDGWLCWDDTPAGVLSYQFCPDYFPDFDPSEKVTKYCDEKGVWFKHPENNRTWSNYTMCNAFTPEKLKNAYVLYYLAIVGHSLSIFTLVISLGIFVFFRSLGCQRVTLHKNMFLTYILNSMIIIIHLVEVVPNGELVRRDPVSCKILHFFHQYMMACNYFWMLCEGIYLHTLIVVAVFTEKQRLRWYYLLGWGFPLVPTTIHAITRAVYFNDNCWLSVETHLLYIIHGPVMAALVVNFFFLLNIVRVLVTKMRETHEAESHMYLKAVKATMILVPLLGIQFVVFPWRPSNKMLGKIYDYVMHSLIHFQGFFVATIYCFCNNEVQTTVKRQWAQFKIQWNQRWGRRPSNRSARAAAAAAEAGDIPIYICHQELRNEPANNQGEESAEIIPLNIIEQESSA

T3: human amylin receptor (amylin 3(a) receptor: human calcitonin receptor co-expressed with RAMP-3) (human, UniProt P30988 25-474; O60896 24-148, limits assumed)
T3 sequence (looked up) 1: T2 sequence (looked up)
T3 sequence (looked up) 2: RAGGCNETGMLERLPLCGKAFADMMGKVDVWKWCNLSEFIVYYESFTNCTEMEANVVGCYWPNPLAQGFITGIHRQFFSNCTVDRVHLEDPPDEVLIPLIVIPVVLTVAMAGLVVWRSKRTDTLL

T4: human calcitonin receptor (human, UniProt P30988 25-474)
T4 sequence (looked up): T2 sequence (looked up)

B1: N^ε1-[(4S)-4-carboxy-4-[[(4S)-4-carboxy-4-(19-carboxynonadecanoylamino)butanoyl]amino]butanoyl]-[His14,Arg17,Pro21,Pro27]-h-amylin (peptide)
peptide: K([γGlu-γGlu-C20 diacid])CNTATCATQRLAHFLRHSSPNFGAIPSSTNVGSNTY-NH2
modifications: disulfide 2-7; N-terminus assumed
SMILES: CC[C@H](C)[C@H](NC(=O)[C@H](C)NC(=O)CNC(=O)[C@H](Cc1ccccc1)NC(=O)[C@H](CC(N)=O)NC(=O)[C@@H]1CCCN1C(=O)[C@H](CO)NC(=O)[C@H](CO)NC(=O)[C@H](Cc1c[nH]cn1)NC(=O)[C@H](CCCNC(=N)N)NC(=O)[C@H](CC(C)C)NC(=O)[C@H](Cc1ccccc1)NC(=O)[C@H](Cc1c[nH]cn1)NC(=O)[C@H](C)NC(=O)[C@H](CC(C)C)NC(=O)[C@H](CCCNC(=N)N)NC(=O)[C@H](CCC(N)=O)NC(=O)[C@@H](NC(=O)[C@H](C)NC(=O)[C@@H]1CSSC[C@H](NC(=O)[C@@H](N)CCCCNC(=O)CC[C@H](NC(=O)CC[C@H](NC(=O)CCCCCCCCCCCCCCCCCCC(=O)O)C(=O)O)C(=O)O)C(=O)N[C@@H](CC(N)=O)C(=O)N[C@@H]([C@@H](C)O)C(=O)N[C@@H](C)C(=O)N[C@@H]([C@@H](C)O)C(=O)N1)[C@@H](C)O)C(=O)N1CCC[C@H]1C(=O)N[C@@H](CO)C(=O)N[C@@H](CO)C(=O)N[C@H](C(=O)N[C@@H](CC(N)=O)C(=O)N[C@H](C(=O)NCC(=O)N[C@@H](CO)C(=O)N[C@@H](CC(N)=O)C(=O)N[C@H](C(=O)N[C@@H](Cc1ccc(O)cc1)C(N)=O)[C@@H](C)O)C(C)C)[C@@H](C)O
notes: Analogue of human amylin; disulfide and C-terminal amide as told for h-amylin; also called compound 92
B2: N^ε1-[(4S)-4-carboxy-4-[[(4S)-4-carboxy-4-(19-carboxynonadecanoylamino)butanoyl]amino]butanoyl]-[Glu14,Arg17,Pro21,Pro27,His34]-h-amylin (peptide)
peptide: K([γGlu-γGlu-C20 diacid])CNTATCATQRLAEFLRHSSPNFGAIPSSTNVGHNTY-NH2
modifications: disulfide 2-7; N-terminus assumed
SMILES: CC[C@H](C)[C@H](NC(=O)[C@H](C)NC(=O)CNC(=O)[C@H](Cc1ccccc1)NC(=O)[C@H](CC(N)=O)NC(=O)[C@@H]1CCCN1C(=O)[C@H](CO)NC(=O)[C@H](CO)NC(=O)[C@H](Cc1c[nH]cn1)NC(=O)[C@H](CCCNC(=N)N)NC(=O)[C@H](CC(C)C)NC(=O)[C@H](Cc1ccccc1)NC(=O)[C@H](CCC(=O)O)NC(=O)[C@H](C)NC(=O)[C@H](CC(C)C)NC(=O)[C@H](CCCNC(=N)N)NC(=O)[C@H](CCC(N)=O)NC(=O)[C@@H](NC(=O)[C@H](C)NC(=O)[C@@H]1CSSC[C@H](NC(=O)[C@@H](N)CCCCNC(=O)CC[C@H](NC(=O)CC[C@H](NC(=O)CCCCCCCCCCCCCCCCCCC(=O)O)C(=O)O)C(=O)O)C(=O)N[C@@H](CC(N)=O)C(=O)N[C@@H]([C@@H](C)O)C(=O)N[C@@H](C)C(=O)N[C@@H]([C@@H](C)O)C(=O)N1)[C@@H](C)O)C(=O)N1CCC[C@H]1C(=O)N[C@@H](CO)C(=O)N[C@@H](CO)C(=O)N[C@H](C(=O)N[C@@H](CC(N)=O)C(=O)N[C@H](C(=O)NCC(=O)N[C@@H](Cc1c[nH]cn1)C(=O)N[C@@H](CC(N)=O)C(=O)N[C@H](C(=O)N[C@@H](Cc1ccc(O)cc1)C(N)=O)[C@@H](C)O)C(C)C)[C@@H](C)O
notes: Analogue of human amylin; disulfide and C-terminal amide as told for h-amylin; also called compound 87
B3: N^ε1-[2-[2-[2-(19-carboxynonadecanoylamino)ethoxy]ethoxy]acetyl]-[His14,Arg17,Pro21,Pro27]-h-amylin (peptide)
peptide: K([AEEA-C20 diacid])CNTATCATQRLAHFLRHSSPNFGAIPSSTNVGSNTY-NH2
modifications: disulfide 2-7; N-terminus assumed
SMILES: CC[C@H](C)[C@H](NC(=O)[C@H](C)NC(=O)CNC(=O)[C@H](Cc1ccccc1)NC(=O)[C@H](CC(N)=O)NC(=O)[C@@H]1CCCN1C(=O)[C@H](CO)NC(=O)[C@H](CO)NC(=O)[C@H](Cc1c[nH]cn1)NC(=O)[C@H](CCCNC(=N)N)NC(=O)[C@H](CC(C)C)NC(=O)[C@H](Cc1ccccc1)NC(=O)[C@H](Cc1c[nH]cn1)NC(=O)[C@H](C)NC(=O)[C@H](CC(C)C)NC(=O)[C@H](CCCNC(=N)N)NC(=O)[C@H](CCC(N)=O)NC(=O)[C@@H](NC(=O)[C@H](C)NC(=O)[C@@H]1CSSC[C@H](NC(=O)[C@@H](N)CCCCNC(=O)COCCOCCNC(=O)CCCCCCCCCCCCCCCCCCC(=O)O)C(=O)N[C@@H](CC(N)=O)C(=O)N[C@@H]([C@@H](C)O)C(=O)N[C@@H](C)C(=O)N[C@@H]([C@@H](C)O)C(=O)N1)[C@@H](C)O)C(=O)N1CCC[C@H]1C(=O)N[C@@H](CO)C(=O)N[C@@H](CO)C(=O)N[C@H](C(=O)N[C@@H](CC(N)=O)C(=O)N[C@H](C(=O)NCC(=O)N[C@@H](CO)C(=O)N[C@@H](CC(N)=O)C(=O)N[C@H](C(=O)N[C@@H](Cc1ccc(O)cc1)C(N)=O)[C@@H](C)O)C(C)C)[C@@H](C)O
notes: Analogue of human amylin; disulfide and C-terminal amide as told for h-amylin; also called compound 90
B4: N^ε1-[2-[2-[2-[[(4S)-4-carboxy-4-(19-carboxynonadecanoylamino)butanoyl]amino]ethoxy]ethoxy]acetyl]-[Arg17,Pro21,Pro27]-h-amylin (peptide)
peptide: K([AEEA-γGlu-C20 diacid])CNTATCATQRLANFLRHSSPNFGAIPSSTNVGSNTY-NH2
modifications: disulfide 2-7; N-terminus assumed
SMILES: CC[C@H](C)[C@H](NC(=O)[C@H](C)NC(=O)CNC(=O)[C@H](Cc1ccccc1)NC(=O)[C@H](CC(N)=O)NC(=O)[C@@H]1CCCN1C(=O)[C@H](CO)NC(=O)[C@H](CO)NC(=O)[C@H](Cc1c[nH]cn1)NC(=O)[C@H](CCCNC(=N)N)NC(=O)[C@H](CC(C)C)NC(=O)[C@H](Cc1ccccc1)NC(=O)[C@H](CC(N)=O)NC(=O)[C@H](C)NC(=O)[C@H](CC(C)C)NC(=O)[C@H](CCCNC(=N)N)NC(=O)[C@H](CCC(N)=O)NC(=O)[C@@H](NC(=O)[C@H](C)NC(=O)[C@@H]1CSSC[C@H](NC(=O)[C@@H](N)CCCCNC(=O)COCCOCCNC(=O)CC[C@H](NC(=O)CCCCCCCCCCCCCCCCCCC(=O)O)C(=O)O)C(=O)N[C@@H](CC(N)=O)C(=O)N[C@@H]([C@@H](C)O)C(=O)N[C@@H](C)C(=O)N[C@@H]([C@@H](C)O)C(=O)N1)[C@@H](C)O)C(=O)N1CCC[C@H]1C(=O)N[C@@H](CO)C(=O)N[C@@H](CO)C(=O)N[C@H](C(=O)N[C@@H](CC(N)=O)C(=O)N[C@H](C(=O)NCC(=O)N[C@@H](CO)C(=O)N[C@@H](CC(N)=O)C(=O)N[C@H](C(=O)N[C@@H](Cc1ccc(O)cc1)C(N)=O)[C@@H](C)O)C(C)C)[C@@H](C)O
notes: also called compound 41
B5: N^α1-[(4S)-4-carboxy-4-(19-carboxynonadecanoylamino)butanoyl]-[Arg17,Pro21,Pro27,Arg34]-h-amylin (peptide)
peptide: KCNTATCATQRLANFLRHSSPNFGAIPSSTNVGRNTY
modifications: alpha amino group of the N-terminal residue (Lys1) acylated with C20 diacid-gGlu; disulfide bridge Cys2-Cys7; C-terminal amide
notes: also called compound 39
B6: N^ε1-[(4S)-4-carboxy-4-(19-carboxynonadecanoylamino)butanoyl]-[His14,Arg17,Pro21,Pro27]-h-amylin (peptide)
peptide: K([γGlu-C20 diacid])CNTATCATQRLAHFLRHSSPNFGAIPSSTNVGSNTY-NH2
modifications: disulfide 2-7; N-terminus assumed
SMILES: CC[C@H](C)[C@H](NC(=O)[C@H](C)NC(=O)CNC(=O)[C@H](Cc1ccccc1)NC(=O)[C@H](CC(N)=O)NC(=O)[C@@H]1CCCN1C(=O)[C@H](CO)NC(=O)[C@H](CO)NC(=O)[C@H](Cc1c[nH]cn1)NC(=O)[C@H](CCCNC(=N)N)NC(=O)[C@H](CC(C)C)NC(=O)[C@H](Cc1ccccc1)NC(=O)[C@H](Cc1c[nH]cn1)NC(=O)[C@H](C)NC(=O)[C@H](CC(C)C)NC(=O)[C@H](CCCNC(=N)N)NC(=O)[C@H](CCC(N)=O)NC(=O)[C@@H](NC(=O)[C@H](C)NC(=O)[C@@H]1CSSC[C@H](NC(=O)[C@@H](N)CCCCNC(=O)CC[C@H](NC(=O)CCCCCCCCCCCCCCCCCCC(=O)O)C(=O)O)C(=O)N[C@@H](CC(N)=O)C(=O)N[C@@H]([C@@H](C)O)C(=O)N[C@@H](C)C(=O)N[C@@H]([C@@H](C)O)C(=O)N1)[C@@H](C)O)C(=O)N1CCC[C@H]1C(=O)N[C@@H](CO)C(=O)N[C@@H](CO)C(=O)N[C@H](C(=O)N[C@@H](CC(N)=O)C(=O)N[C@H](C(=O)NCC(=O)N[C@@H](CO)C(=O)N[C@@H](CC(N)=O)C(=O)N[C@H](C(=O)N[C@@H](Cc1ccc(O)cc1)C(N)=O)[C@@H](C)O)C(C)C)[C@@H](C)O
notes: Analogue of human amylin; disulfide and C-terminal amide as told for h-amylin; also called compound 70

Tests used:
rat calcitonin receptor [1] = biological target: T1, rat calcitonin receptor; assay: SPA competition with 125I-calcitonin, membranes with rat calcitonin receptor (Assay VIII)
[2] = biological target: T2, human calcitonin receptor; assay: ratio of binding IC50 at human calcitonin receptor to IC50 at human amylin receptor (reference)
Procedure, shortened: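 Membranes (35 ng/μL final) + SPA beads, 50 mM Hepes pH 7.4 buffer with 1 mM CaCl2, 5 mM MgCl₂, 0.1% OA, 0.02% Tween20; 120 min, 25° C, shaking; centrifuged, counted; IC₅₀ by one-site binding competition.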

rat calcitonin receptor [3] = biological target: T1, rat calcitonin receptor; assay: ratio of binding IC50 at rat calcitonin receptor to IC50 at rat amylin receptor (reference)
[4] = biological target: T3, human amylin receptor (amylin 3(a) …); assay: cell-based or functional assay
[5] = biological target: T4, human calcitonin receptor; assay: cell-based or functional assay

Row | Binder | IC50 (rat calcitonin receptor [1]) [nM] | Ratio hCT/hAmylin binding [2] | Ratio rCT/rAmylin binding (rat calcitonin receptor [3]) | hAmylin-R funct. EC50 [4] [pM] | Ratio hCT/hAmylin funct. (hCTR EC50 against hAmylin-R EC50) [5] | hCTR funct. EC50 [5] [nM]
1 | B1 | 104 | 145 | 156 | – | – | –
2 | B2 | 94.5 | 35.6 | 45.6 | – | – | –
3 | B3 | 18.2 | 42.2 | 74.1 | – | – | –
4 | B4 | – | – | – | 260 | 16.7 | 4.35
5 | B5 | – | – | – | 217 | 11.6 | 2.52
6 | B6 | 34.2 | 60.8 | 96.5 | – | – | –
